Here are results for 7 molecules from patent CN116199779A (BEIJING DONGFANG BIOTECH CO LTD; BEIJING JINGYI TAIXIANG …, dated 2023).

Experiment [1] deals with T1, THP-1细胞表面的LILRB4 (human, UniProt Q8NHJ6 22-448).
T1 construct: whole, on cells; Endogenous LILRB4 on THP-1 cells; also called 人单核细胞白血病细胞(THP-1)表面LILRB4
Kind of experiment: flow cytometry on THP-1 cells, FITC anti-mouse IgG.

Experiment [2] concerns the target T2, LILRA2 (UniProt Q8N149 24-449, limits assumed).
T2 construct: construct not described
Kind of experiment: ELISA, coated protein 100ng/well, antibody 50μg/mL.

In experiment [3] the target is T3, LILRA4 (UniProt P59901 24-446, limits assumed).
T3 construct: construct not described
Kind of experiment: ELISA, coated protein 100ng/well, antibody 50μg/mL.

Experiment [4] addresses T4, LILRB5 (UniProt O75023 24-458, limits assumed).
T4 construct: construct not described
Kind of experiment: ELISA, coated protein 100ng/well, antibody 50μg/mL.

The target of experiment [5] is T5, LILRA3 (UniProt Q8N6C8 24-439).
T5 construct: construct not described
T5 sequence (Q8N6C8 24-439 limits assumed): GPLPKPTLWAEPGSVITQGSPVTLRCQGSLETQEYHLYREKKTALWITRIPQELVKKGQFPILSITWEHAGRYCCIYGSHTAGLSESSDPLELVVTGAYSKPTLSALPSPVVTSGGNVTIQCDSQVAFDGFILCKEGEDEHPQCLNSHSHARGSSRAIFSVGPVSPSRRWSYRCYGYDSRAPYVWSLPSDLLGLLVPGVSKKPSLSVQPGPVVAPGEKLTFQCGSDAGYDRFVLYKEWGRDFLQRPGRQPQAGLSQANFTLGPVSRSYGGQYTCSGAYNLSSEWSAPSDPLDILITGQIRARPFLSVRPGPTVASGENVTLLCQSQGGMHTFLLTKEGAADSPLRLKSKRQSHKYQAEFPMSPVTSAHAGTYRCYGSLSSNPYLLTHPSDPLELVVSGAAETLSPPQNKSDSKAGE
Kind of experiment: ELISA, coated protein 100ng/well, antibody 50μg/mL.

In experiment [6] the target is T6, LILRA6 (UniProt Q6PI73 24-447, limits assumed).
T6 construct: construct not described
T6 sequence (Q6PI73 24-447 limits assumed): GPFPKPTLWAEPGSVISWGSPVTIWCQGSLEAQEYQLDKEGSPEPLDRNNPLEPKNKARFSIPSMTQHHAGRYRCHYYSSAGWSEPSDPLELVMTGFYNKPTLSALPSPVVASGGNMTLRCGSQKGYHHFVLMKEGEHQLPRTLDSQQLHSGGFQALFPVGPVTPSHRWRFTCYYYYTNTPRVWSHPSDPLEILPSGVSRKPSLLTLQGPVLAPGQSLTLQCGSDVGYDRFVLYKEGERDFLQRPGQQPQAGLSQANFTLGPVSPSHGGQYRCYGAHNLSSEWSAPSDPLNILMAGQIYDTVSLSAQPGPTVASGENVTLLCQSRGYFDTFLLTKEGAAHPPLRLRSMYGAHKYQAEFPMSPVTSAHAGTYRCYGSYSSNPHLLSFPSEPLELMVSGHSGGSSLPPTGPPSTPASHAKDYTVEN
Kind of experiment: ELISA, coated protein 100ng/well, antibody 50μg/mL.

In experiment [7] the target is T7, LILRB4抗原 (人LILRB4蛋白胞外段) (human, UniProt Q8NHJ6 22-259).
T7 construct: extracellular domain; also called 白细胞免疫球蛋白样受体亚家族B成员4
Kind of experiment: ELISA, coated protein 100ng/well, antibody 50μg/mL.

Experiment [8] has as its target T8, LILRB3 (UniProt O75022 24-443, limits assumed).
T8 construct: construct not described
In words: ELISA, coated protein 100ng/well, antibody 50μg/mL.

The target in experiment [9] is T9, LILRB2 (UniProt Q8N423 22-460, limits assumed).
T9 construct: construct not described
T9 sequence (Q8N423 22-460 limits assumed): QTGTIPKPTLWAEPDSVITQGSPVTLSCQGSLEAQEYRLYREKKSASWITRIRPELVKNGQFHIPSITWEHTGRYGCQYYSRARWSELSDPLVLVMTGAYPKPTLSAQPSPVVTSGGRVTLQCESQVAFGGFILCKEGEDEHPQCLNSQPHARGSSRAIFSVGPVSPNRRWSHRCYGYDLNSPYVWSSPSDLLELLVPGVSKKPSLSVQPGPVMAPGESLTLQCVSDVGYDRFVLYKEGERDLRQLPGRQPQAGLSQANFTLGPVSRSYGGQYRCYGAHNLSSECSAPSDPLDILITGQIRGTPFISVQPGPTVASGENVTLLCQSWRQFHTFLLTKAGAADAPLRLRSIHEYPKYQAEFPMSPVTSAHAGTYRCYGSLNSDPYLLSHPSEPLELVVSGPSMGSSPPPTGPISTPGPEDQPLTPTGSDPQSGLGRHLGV
In words: ELISA, coated protein 100ng/well, antibody 50μg/mL.

The target of experiment [10] is T10, LILRA1 (UniProt O75019 17-461, limits assumed).
T10 construct: construct not described
T10 sequence (O75019 17-461 limits assumed): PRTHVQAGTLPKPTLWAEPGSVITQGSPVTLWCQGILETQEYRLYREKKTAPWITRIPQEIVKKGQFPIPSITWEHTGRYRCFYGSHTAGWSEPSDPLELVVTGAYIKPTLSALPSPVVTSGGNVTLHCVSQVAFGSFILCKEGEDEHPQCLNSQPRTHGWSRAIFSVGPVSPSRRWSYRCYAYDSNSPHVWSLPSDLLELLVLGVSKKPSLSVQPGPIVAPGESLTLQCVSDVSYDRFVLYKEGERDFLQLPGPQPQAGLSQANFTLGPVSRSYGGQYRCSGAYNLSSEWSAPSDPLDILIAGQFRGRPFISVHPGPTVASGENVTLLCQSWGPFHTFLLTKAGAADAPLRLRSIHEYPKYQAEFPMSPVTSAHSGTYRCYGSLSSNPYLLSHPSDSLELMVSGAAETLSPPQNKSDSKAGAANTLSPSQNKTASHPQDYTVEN
Kind of experiment: ELISA, coated protein 100ng/well, antibody 50μg/mL.

Experiment [11] has as its target T11, LILRA5 (UniProt A6NI73 42-268, limits assumed).
T11 construct: construct not described
Kind of experiment: ELISA, coated protein 100ng/well, antibody 50μg/mL.

Experiment [12] addresses T12, LILRB1 (UniProt Q8NHL6 24-461, limits assumed).
T12 construct: construct not described
Kind of experiment: ELISA, coated protein 100ng/well, antibody 50μg/mL.

The target in experiment [13] is T1, THP-1细胞表面的LILRB4. In words: flow cytometry competition on THP-1 cells; competitor FITC-labelled ApoE.
The target of experiment [14] is T1, THP-1细胞表面的LILRB4. In words: cell-based or functional assay.
Experiment [15] addresses T7, LILRB4抗原 (人LILRB4蛋白胞外段). Kind of experiment: ELISA, coated LILRB4, anti-mouse IgG-HRP.
Experiment [16] concerns the target T2, LILRA2. In words: ELISA, coated protein 100ng/well.
Experiment [17] has as its target T3, LILRA4. Kind of experiment: ELISA, coated protein 100ng/well.
The target of experiment [18] is T4, LILRB5. In words: ELISA, coated protein 100ng/well.
In experiment [19] the target is T5, LILRA3. In words: ELISA, coated protein 100ng/well.
Experiment [20] has as its target T6, LILRA6. Kind of experiment: ELISA, coated protein 100ng/well.
Experiment [21] deals with T8, LILRB3. Kind of experiment: ELISA, coated protein 100ng/well.
In experiment [22] the target is T9, LILRB2. In words: ELISA, coated protein 100ng/well.
Experiment [23] concerns the target T10, LILRA1. Kind of experiment: ELISA, coated protein 100ng/well.
In experiment [24] the target is T11, LILRA5. Kind of experiment: ELISA, coated protein 100ng/well.
For experiment [25], the target named is T12, LILRB1. Kind of experiment: ELISA, coated protein 100ng/well.
For experiment [26], the target named is T1, THP-1细胞表面的LILRB4. In words: cell-based or functional assay. The source holds these as a separate data set.
Experiment [27] addresses T1, THP-1细胞表面的LILRB4. Kind of experiment: flow cytometry competition on THP-1 cells; competitor FITC-labelled ApoE. This is another data set of the same source.
Experiment [28] concerns the target T1, THP-1细胞表面的LILRB4. In words: cell-based or functional assay. The source holds these as a separate data set.
Experiment [29] deals with T1, THP-1细胞表面的LILRB4. In words: flow cytometry on THP-1 cells.
For experiment [30], the target named is T7, LILRB4抗原 (人LILRB4蛋白胞外段). In words: ELISA, coated LILRB4, anti-human IgG-HRP.

Changes are numbered by the printed parent chain. Like-named read-outs stand apart in the source and are kept apart here.

T12 sequence (Q8NHL6 24-461 limits assumed): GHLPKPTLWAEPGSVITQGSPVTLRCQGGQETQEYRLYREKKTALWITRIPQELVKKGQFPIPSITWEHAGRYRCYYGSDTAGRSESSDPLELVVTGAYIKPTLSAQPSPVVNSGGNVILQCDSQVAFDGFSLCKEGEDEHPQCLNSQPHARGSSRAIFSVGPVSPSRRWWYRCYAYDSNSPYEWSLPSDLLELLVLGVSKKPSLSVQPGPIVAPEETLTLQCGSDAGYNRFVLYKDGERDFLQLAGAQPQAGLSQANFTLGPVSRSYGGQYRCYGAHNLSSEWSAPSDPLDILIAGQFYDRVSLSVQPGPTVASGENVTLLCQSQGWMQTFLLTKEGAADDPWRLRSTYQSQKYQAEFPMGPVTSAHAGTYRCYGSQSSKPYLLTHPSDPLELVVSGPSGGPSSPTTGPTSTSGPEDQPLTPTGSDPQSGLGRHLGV
T11 sequence (A6NI73 42-268 limits assumed): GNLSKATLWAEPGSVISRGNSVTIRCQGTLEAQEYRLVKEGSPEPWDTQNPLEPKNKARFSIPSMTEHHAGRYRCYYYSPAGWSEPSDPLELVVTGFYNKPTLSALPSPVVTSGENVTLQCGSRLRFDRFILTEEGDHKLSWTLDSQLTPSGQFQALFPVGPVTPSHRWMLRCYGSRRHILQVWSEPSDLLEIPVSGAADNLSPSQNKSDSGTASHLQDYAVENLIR
T2 sequence (Q8N149 24-449 limits assumed): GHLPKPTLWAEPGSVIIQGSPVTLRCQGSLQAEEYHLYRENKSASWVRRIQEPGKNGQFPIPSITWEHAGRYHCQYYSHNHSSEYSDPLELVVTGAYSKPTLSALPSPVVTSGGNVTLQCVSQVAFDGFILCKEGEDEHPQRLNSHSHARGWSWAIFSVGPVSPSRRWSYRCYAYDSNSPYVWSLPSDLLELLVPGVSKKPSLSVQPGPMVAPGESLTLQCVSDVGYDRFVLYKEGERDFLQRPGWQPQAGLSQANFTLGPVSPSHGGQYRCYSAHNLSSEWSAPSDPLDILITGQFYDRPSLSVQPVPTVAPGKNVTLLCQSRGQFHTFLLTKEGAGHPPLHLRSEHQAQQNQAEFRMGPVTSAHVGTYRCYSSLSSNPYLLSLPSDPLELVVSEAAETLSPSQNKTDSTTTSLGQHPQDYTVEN
T8 sequence (O75022 24-443 limits assumed): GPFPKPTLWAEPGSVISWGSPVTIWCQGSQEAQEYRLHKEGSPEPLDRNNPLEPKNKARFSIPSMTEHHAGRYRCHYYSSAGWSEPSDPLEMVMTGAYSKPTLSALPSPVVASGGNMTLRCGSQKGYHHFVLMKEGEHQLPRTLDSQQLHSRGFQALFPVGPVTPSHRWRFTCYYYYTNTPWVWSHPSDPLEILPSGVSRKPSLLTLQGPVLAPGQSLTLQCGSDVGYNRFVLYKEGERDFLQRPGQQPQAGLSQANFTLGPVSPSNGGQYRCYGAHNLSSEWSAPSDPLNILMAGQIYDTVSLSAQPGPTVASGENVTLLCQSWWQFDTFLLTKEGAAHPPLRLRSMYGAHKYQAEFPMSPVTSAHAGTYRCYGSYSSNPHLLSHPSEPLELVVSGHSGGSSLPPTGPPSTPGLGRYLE
T4 sequence (O75023 24-458 limits assumed): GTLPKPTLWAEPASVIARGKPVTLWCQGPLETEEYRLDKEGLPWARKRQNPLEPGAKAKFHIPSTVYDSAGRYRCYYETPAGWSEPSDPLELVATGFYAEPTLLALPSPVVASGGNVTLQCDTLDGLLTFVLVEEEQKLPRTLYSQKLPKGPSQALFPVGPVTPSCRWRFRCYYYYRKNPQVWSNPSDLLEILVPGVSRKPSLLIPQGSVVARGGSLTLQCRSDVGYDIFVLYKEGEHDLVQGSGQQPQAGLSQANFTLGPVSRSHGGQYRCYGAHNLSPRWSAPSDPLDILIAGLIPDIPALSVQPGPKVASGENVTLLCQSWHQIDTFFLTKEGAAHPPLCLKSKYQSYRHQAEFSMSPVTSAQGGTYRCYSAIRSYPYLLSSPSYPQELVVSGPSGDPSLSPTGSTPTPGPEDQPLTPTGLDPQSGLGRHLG

B1: MA-Ⅰ 鼠源抗LILRB4单克隆抗体 (mouse IgG1, Ck) (antibody)
heavy: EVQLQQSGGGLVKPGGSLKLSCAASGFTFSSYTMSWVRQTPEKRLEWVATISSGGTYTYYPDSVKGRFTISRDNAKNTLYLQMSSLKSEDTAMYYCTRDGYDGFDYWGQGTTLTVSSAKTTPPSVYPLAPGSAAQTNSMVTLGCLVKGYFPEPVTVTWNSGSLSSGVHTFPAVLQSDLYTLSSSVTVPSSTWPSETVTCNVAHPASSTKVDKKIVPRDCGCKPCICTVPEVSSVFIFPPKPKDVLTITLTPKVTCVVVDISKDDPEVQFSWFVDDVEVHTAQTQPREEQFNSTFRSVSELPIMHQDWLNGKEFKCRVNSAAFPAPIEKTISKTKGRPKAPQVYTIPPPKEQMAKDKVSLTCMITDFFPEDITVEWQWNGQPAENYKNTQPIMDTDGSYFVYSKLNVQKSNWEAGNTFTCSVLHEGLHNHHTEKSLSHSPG
light: DIVMTQTTLSLPVSPGDQASISCRSSQSLAHSNGNTYLHWYLQKPGQSPKLLIYKVSNRFSGVPDRFSGSGSGTDFTLKISRVEAEDLGVYFCSQSTLVPTFGGGTKLEIKADAAPTVSIFPPSSEQLTSGGASVVCFLNNFYPKDINVKWKIDGSERQNGVLNSWTDQDSKDSTYSMSSTLTLTKDEYERHNSYTCEATHKTSTSPIVKSFNRNEC
notes: also called MA-I; 鼠源抗体MA-Ⅰ
In the case of B1, the values for the EC50 in experiment [1] and in experiment [15] were 0.306 µg/mL and 0.00835 µg/mL, respectively. For the same molecule, the “OD 450nm/630nm” value in experiment [2] came out at 0.083 OD; in experiment [3], 0.092 OD; in experiment [4] it was 0.197 OD; in experiment [5], 0.068 OD; in [6] it was 0.054 OD; in [7], 2.97 OD. For the same molecule, the “OD 450nm/630nm” value in experiment [8] is 0.072 OD; in experiment [9], 0.036 OD; in experiment [10], 0.12 OD; in experiment [11], 0.077 OD; in experiment [12], 0.064 OD. In [13], this molecule displayed an IC50 of 0.204 µg/mL. Moreover, in [14], the “IC50 of inhibition of ARG1 secretion by THP-1 cells with ApoE (arginase activity)” value (“IC50 of inhibition of ARG1 secretion” below) turned out to be 23.9 µg/mL. Moreover, the binding result in experiment [16], in experiment [17], in [18], in [19], in [20] and in experiment [21] was “no binding (tested: 50μg/mL)” throughout. The binding result in experiment [22], in experiment [23], in experiment [24] and in experiment [25] was “no binding (tested: 50μg/mL)” each time.

B2: 人源化抗体HA-Ⅱ (human IgG1, Ck) (antibody, V domains shown)
VH: EVQLVESGGGLVKPGGSLRLSCAASGFTFSSYTMSWVRQAPGKGLEWVATISSGGTYTYYPDSVKGRFTISRDNAKNSLYLQMNSLRAEDTAVYYCARDGYDGFDYWGQGTTVTVSS
VL: DIVMTQTPLSLSVTPGQPASISCRSSQSLAHSNGNTYLHWYLQKPGQSPQLLIYKVSNRFSGVPDRFSGSGSGTDFTLKISRVEAEDVGVYFCSQSTHVPTFGGGTKVEIKR
notes: also called HA-II
Regarding B2, the “IC50, NF-κB luciferase reporter in THP-1-NF-κB-Luc cells stimulated with ApoE” value (“IC50, NF-κB luciferase reporter” below) in experiment [26] stood at 2.68 µg/mL. Besides, in experiment [27], the half-inhibitory concentration (IC50) was determined as 2.75 µg/mL. For the same molecule, the “IC50 of inhibition of ARG1 secretion” value in experiment [28] amounted to 250 µg/mL. In addition, the figures for the EC50 in experiment [29] and in experiment [30] were 0.179 µg/mL and 0.0154 µg/mL, respectively.

B3: 人源化抗体HA-Ⅰ (human IgG1, Ck) (antibody, V domains shown)
VH: B2 VH with A49S
VL: B2 VL with F92Y
notes: also called HA-I
For the molecule B3, the “IC50, NF-κB luciferase reporter” value in [26] was found to be 0.756 µg/mL. In [27], this molecule yielded an IC50 of 0.48 µg/mL. The “IC50 of inhibition of ARG1 secretion” value in experiment [28] stood at 31.2 µg/mL. In addition, the results for the EC50 in [29] and in experiment [30] were 0.181 µg/mL and 0.0174 µg/mL, respectively.

B4: 人源化抗体HA-Ⅲ (human IgG1, Ck) (antibody, V domains shown)
VH: B2 VH with A97T
VL: B2 VL with Q50K
notes: also called HA-III
As for B4, the “IC50, NF-κB luciferase reporter” value in [26] amounted to 3.44 µg/mL. In [27], the concentration for half-maximal inhibition (IC50) is 2.56 µg/mL. Moreover, the “IC50 of inhibition of ARG1 secretion” value in experiment [28] amounted to 98.5 µg/mL. The results for the 50% effective concentration (EC50) in experiment [29] and in experiment [30] were 0.186 µg/mL and 0.014 µg/mL, respectively.

B5: 嵌合抗体CB-Ⅰ (MB-Ⅰ variable regions, human IgG1, Ck) (antibody)
heavy: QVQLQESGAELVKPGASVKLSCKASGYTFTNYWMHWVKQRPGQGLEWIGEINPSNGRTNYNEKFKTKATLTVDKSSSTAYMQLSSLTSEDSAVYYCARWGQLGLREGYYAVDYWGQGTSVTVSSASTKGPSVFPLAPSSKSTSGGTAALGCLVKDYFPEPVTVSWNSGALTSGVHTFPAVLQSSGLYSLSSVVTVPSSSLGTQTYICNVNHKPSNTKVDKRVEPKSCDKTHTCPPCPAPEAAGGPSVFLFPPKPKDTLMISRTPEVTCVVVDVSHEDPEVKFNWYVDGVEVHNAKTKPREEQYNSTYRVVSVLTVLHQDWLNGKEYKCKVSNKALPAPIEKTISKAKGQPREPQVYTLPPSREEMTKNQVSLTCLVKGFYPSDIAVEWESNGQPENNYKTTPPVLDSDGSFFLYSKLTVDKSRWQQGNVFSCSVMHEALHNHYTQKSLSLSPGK
light: DIVMTQSPSSLSASLGDRVTISCRASQDISNYLNWYQQKPDGTVKLLIYYTSRLHSGVPSRFSGSGSGTDYSLTISNLEQEDIATYFCQQGNTLPPTFGGGTKLEIKRTVAAPSVFIFPPSDEQLKSGTASVVCLLNNFYPREAKVQWKVDNALQSGNSQESVTEQDSKDSTYSLSSTLTLSKADYEKHKVYACEVTHQGLSSPVTKSFNRGEC
notes: also called CB-I
B5: the values for the 50% effective concentration (EC50) in experiment [29] and in experiment [30] were 0.445 µg/mL and 0.0655 µg/mL, respectively.

B6: 人源化抗体HB-Ⅰ (human IgG1, Ck) (antibody, V domains shown)
VH: QVQLVQSGAEVKKPGASVKVSCKASGYTFTNYWMHWVRQAPGQGLEWIGEINPSNGRTNYNEKFKTRATLTVDTSTSTAYMELSSLRSEDTAVYYCARWGQLGLREGYYAVDYWGQGTLVTVSS
VL: DIQMTQSPSSLSASVGDRVTITCRASQDISNYLNWYQQKPGKAPKLLIYYTSRLHSGVPSRFSGSGSGTDYTFTISSLQPEDIATYYCQQGNTLPPTFGGGTKVEIKR
notes: also called HB-I
For B6, the midpoint of the response in [30], the EC50, lay at 0.343 µg/mL.

B7: 嵌合抗体CA-Ⅰ (MA-Ⅰ variable regions, human IgG1, Ck) (antibody)
heavy: not shown
light: DIVMTQTTLSLPVSPGDQASISCRSSQSLAHSNGNTYLHWYLQKPGQSPKLLIYKVSNRFSGVPDRFSGSGSGTDFTLKISRVEAEDLGVYFCSQSTLVPTFGGGTKLEIKRTVAAPSVFIFPPSDEQLKSGTASVVCLLNNFYPREAKVQWKVDNALQSGNSQESVTEQDSKDSTYSLSSTLTLSKADYEKHKVYACEVTHQGLSSPVTKSFNRGEC
notes: also called CA-I
Regarding B7, the half-maximal effective concentration (EC50) turned out to be 0.2 µg/mL in [29] and 0.0178 µg/mL in experiment [30].
